Measurements reported in the supplement of paper PMC10065799, “High-throughput profiling of sequence recognition by tyrosine kinases and SH2 domains using bacterial peptide display” (eLife, 2023).

Key:
MERTK = MERTK (UniProt Q12866); assay: phosphorylation enrichment, bacterial display (enrichment ratio); higher = better substrate or ligand; peptides without Tyr show the background
Fyn = Fyn (UniProt P06241); assay: as above
Fer (mouse) = assay: as above
EPHB1 = EPHB1 (UniProt P54762); assay: as above
Hck = Hck (UniProt P08631); assay: as above
Hck, sequence (P08631 whole entry, looked up): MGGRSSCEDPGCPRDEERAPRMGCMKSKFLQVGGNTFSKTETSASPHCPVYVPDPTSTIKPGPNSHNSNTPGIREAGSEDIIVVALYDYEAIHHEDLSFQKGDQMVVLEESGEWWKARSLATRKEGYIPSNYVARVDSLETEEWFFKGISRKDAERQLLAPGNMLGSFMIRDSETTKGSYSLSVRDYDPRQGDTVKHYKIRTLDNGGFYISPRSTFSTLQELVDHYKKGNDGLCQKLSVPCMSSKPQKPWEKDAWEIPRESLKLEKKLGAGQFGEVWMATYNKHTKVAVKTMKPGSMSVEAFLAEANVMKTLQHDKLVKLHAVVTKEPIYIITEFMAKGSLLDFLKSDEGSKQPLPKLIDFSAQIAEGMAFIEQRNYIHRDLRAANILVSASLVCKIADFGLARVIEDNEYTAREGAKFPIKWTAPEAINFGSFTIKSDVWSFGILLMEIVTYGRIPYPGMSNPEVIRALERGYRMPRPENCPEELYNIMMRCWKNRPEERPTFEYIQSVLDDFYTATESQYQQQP

Jak2 = Jak2 (UniProt O60674); assay: as above
Jak2, sequence (O60674 whole entry, looked up): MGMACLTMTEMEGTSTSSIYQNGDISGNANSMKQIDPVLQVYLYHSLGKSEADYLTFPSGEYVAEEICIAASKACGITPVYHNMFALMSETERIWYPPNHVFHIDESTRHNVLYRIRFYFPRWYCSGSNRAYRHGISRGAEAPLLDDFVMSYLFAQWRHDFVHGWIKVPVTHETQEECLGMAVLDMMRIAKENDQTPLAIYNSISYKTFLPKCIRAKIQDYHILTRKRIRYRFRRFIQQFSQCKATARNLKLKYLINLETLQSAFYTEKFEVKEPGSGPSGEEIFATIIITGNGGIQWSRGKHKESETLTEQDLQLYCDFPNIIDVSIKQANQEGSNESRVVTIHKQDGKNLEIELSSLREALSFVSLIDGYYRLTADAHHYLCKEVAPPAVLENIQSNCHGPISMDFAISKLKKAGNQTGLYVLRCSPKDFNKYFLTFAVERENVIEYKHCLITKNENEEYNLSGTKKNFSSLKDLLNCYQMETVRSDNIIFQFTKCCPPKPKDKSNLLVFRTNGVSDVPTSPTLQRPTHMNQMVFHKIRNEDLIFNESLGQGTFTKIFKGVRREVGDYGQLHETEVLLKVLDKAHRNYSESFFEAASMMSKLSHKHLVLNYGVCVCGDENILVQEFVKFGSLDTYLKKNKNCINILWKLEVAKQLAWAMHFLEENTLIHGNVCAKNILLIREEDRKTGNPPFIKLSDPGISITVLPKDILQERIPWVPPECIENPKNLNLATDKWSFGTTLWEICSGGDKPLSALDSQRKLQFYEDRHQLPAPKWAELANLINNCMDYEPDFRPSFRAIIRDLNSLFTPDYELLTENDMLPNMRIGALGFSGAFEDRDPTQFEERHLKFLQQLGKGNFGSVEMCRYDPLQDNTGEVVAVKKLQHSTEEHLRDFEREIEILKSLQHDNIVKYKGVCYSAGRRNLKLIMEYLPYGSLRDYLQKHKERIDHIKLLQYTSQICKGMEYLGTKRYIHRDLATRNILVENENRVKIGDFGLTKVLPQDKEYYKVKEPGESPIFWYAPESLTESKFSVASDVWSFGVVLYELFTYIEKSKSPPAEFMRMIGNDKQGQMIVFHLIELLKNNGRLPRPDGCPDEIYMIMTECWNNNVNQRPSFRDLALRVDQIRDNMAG

c-Abl (mouse) = assay: as above
c-Src = assay: as above
FGFR1 = FGFR1 (UniProt P11362); assay: as above
FGFR1, sequence (P11362 whole entry, looked up): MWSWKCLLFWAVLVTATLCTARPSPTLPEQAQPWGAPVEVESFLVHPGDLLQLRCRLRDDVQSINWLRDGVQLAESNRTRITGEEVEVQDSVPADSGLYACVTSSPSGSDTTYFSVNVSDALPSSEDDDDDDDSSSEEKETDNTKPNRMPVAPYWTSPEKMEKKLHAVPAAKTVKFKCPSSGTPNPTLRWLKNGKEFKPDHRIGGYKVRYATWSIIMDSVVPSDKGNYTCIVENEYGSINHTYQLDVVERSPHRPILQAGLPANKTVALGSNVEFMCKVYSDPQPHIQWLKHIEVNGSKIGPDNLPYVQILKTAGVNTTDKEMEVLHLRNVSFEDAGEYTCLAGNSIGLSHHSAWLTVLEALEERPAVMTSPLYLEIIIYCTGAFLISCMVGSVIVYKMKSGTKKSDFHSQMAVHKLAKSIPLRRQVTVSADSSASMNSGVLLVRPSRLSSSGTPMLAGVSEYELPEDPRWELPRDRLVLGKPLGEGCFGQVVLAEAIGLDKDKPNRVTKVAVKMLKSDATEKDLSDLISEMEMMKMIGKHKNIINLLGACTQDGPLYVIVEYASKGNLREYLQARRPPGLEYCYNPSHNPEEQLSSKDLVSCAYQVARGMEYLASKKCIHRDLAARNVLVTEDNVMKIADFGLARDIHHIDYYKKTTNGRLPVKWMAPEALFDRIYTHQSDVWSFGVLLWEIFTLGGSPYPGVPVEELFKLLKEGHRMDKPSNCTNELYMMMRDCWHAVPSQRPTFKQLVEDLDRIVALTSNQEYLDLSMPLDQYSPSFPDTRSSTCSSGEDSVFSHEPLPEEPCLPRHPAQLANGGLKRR

Fes = Fes (UniProt P07332); assay: as above
Fes, sequence (P07332 whole entry, looked up): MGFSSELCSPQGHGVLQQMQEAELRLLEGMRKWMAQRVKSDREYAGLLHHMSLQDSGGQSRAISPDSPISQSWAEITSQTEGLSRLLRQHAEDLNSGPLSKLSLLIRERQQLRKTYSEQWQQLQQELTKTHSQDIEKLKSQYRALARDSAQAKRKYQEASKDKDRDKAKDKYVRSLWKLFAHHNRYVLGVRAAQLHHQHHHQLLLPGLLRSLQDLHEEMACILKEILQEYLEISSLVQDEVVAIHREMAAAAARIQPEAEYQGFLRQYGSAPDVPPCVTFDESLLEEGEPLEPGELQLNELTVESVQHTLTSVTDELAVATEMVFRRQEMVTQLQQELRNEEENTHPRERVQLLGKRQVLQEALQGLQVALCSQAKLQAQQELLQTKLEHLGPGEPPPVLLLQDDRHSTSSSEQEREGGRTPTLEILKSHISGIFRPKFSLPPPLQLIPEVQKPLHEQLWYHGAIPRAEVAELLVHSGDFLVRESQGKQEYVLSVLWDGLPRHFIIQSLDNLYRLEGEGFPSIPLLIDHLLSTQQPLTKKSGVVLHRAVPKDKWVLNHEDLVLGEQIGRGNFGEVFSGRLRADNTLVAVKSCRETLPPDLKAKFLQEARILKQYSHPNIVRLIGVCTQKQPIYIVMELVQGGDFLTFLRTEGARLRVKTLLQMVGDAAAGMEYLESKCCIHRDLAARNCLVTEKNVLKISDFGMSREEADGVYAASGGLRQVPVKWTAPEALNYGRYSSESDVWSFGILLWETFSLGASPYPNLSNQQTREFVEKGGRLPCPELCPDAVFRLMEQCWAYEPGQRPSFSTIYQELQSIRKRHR

AncSZ = assay: as above
FGFR3 = FGFR3 (UniProt P22607); assay: as above
EPHB2 = EPHB2 (UniProt P29323); assay: as above
Grb2 SH2 = Grb2 SH2 (UniProt P62993); assay: SH2 binding enrichment of the phosphorylated peptide, bacterial display (enrichment ratio); higher = better substrate or ligand; peptides without Tyr show the background
SHP2-C SH2 = assay: as above
c-Src SH2 = assay: as above
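For SH2 binding enrichment of the phosphorylated peptide, bacterial display in this document: peptide library displayed on the E. coli surface as eCPX fusions, selected cells deep-sequenced, score is each peptide's frequency after selection divided by its frequency in the input.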
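For phosphorylation enrichment, bacterial display in this document: 11-residue human phosphosite peptides and single-mutation variants displayed on the E. coli surface, counted by deep sequencing, each peptide's frequency after selection divided by its frequency in the unselected input library; frequency after pTyr selection over input frequency; kinase dosed for 20-30% of maximal phosphorylation in three min.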

Fyn, sequence (P06241 whole entry, looked up): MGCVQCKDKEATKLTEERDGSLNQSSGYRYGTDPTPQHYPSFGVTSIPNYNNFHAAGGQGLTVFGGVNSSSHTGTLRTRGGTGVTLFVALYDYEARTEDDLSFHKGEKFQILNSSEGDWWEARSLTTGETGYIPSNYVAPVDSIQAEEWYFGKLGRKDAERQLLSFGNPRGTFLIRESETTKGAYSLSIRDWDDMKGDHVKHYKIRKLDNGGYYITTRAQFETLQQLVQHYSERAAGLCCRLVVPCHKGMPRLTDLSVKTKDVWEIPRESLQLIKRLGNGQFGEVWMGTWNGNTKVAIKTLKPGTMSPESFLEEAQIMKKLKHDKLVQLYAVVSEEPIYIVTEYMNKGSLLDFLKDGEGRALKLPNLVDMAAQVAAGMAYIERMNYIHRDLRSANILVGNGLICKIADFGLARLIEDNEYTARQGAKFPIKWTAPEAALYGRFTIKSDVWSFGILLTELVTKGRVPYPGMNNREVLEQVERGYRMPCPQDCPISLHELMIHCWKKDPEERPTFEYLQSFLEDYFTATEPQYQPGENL
MERTK, sequence (Q12866 whole entry, looked up): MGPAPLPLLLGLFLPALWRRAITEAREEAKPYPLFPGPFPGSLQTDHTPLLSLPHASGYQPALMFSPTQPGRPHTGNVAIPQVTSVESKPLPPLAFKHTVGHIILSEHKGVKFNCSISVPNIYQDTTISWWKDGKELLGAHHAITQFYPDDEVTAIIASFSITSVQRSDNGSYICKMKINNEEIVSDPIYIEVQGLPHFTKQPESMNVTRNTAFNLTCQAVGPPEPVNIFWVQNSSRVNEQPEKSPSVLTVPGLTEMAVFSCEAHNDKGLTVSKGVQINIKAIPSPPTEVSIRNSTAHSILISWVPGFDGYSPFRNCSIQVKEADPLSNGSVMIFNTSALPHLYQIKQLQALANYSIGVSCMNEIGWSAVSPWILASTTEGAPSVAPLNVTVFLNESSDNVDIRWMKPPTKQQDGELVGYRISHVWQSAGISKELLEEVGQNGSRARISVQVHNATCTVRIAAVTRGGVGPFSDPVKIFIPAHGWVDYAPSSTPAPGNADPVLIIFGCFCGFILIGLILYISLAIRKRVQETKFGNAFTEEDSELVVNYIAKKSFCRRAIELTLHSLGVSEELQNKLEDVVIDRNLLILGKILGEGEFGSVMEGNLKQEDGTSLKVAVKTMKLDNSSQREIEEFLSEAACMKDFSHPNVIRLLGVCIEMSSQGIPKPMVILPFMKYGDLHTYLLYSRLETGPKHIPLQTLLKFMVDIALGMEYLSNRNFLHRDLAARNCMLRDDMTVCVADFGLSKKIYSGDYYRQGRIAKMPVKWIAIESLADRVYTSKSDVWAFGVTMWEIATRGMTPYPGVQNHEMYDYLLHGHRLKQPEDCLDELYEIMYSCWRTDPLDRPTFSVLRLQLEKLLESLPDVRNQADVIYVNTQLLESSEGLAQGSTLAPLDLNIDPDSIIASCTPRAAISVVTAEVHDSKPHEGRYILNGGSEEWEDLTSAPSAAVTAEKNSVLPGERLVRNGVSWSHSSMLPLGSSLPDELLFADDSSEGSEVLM

SH2 binding enrichment (Grb2 SH2) | SH2 binding enrichment (SHP2-C SH2) | SH2 binding enrichment (c-Src SH2) | Sequence | phosphorylation enrichment (MERTK) | phosphorylation enrichment (Fyn) | phosphorylation enrichment (Fer (mouse)) | phosphorylation enrichment (EPHB1) | phosphorylation enrichment (Hck) | phosphorylation enrichment (Jak2) | phosphorylation enrichment (c-Abl (mouse)) | phosphorylation enrichment (c-Src) | phosphorylation enrichment (FGFR1) | phosphorylation enrichment (Fes) | phosphorylation enrichment (AncSZ) | phosphorylation enrichment (FGFR3) | phosphorylation enrichment (EPHB2)
0.873 | 0.744 | 0.462 | VNKIFHPDFIV [LIG3_Y768_Y768H_YF] | 0.432 | 0.447 | 0.397 | 0.487 | 0.39 | 0.695 | 0.6 | 0.497 | 0.419 | 0.871 | 0.793 | 0.547 | 0.454
0.764 | 0.826 | 3.14 | VNTTLYEKFTY [TEK_Y1108] | 4.25 | 3.69 | 5.72 | 1.92 | 4.55 | 0.804 | 0.908 | 3.87 | 0.483 | 0.879 | 0.983 | 0.648 | 1.13
0.715 | 0.679 | 0.52 | VSSSDYFSFVL [USP24_Y2138_Y2134S] | 4.39 | 5.34 | 1.1 | 4.7 | 2.49 | 8.84 | 4.78 | 7.49 | 12.3 | 1.66 | 3.42 | 10.5 | 3.25
0.988 | 0.981 | 10.1 | VVRSLYEDLED [VHL_Y185_I180V] | 0.525 | 0.587 | 1.24 | 0.711 | 0.573 | 1.21 | 0.835 | 0.544 | 0.556 | 1.24 | 1.26 | 0.792 | 0.984
0.98 | 0.589 | 0.811 | WEQELYSQLVY [WAS_Y102] | 9.2 | 9.39 | 15.7 | 11.8 | 8.84 | 1.35 | 1.55 | 7.33 | 8.38 | 2.69 | 2.3 | 7.23 | 16
0.841 | 0.488 | 0.499 | WPLKWYVPECI [ZAP70_Y506_A507V] | 0.382 | 0.428 | 0.44 | 0.688 | 0.572 | 1.02 | 0.757 | 0.387 | 0.496 | 1.18 | 1.06 | 0.804 | 0.618
0.823 | 0.894 | 1.12 | YAKSVYWENTL [NUP107_Y296] | 0.526 | 0.61 | 0.492 | 0.584 | 0.674 | 0.821 | 0.728 | 0.871 | 0.49 | 0.967 | 1.02 | 0.619 | 0.485
0.86 | 0.46 | 2.38 | YEDALYTVLHR [UNC13D_Y61] | 9.59 | 8.38 | 12.9 | 16.6 | 9.13 | 1.7 | 11.5 | 7.21 | 3.68 | 2.06 | 3.84 | 3.1 | 15.9
1.07 | 1.09 | 0.707 | YGGLRYGYGVL [KRTAP20-2_Y13] | 0.497 | 1.25 | 0.448 | 0.415 | 1.42 | 0.658 | 0.536 | 1.64 | 0.559 | 0.741 | 0.671 | 0.518 | 0.608
1.27 | 1.5 | 0.814 | YKPGFYNLKEK [LAMA1_Y490_C485Y] | 0.366 | 0.421 | 0.432 | 0.343 | 0.397 | 0.891 | 0.971 | 0.491 | 0.352 | 0.628 | 0.659 | 0.402 | 0.431
0.938 | 0.94 | 0.681 | YLEKYYKFGCR [NNMT_Y25_S29C] | 0.649 | 0.549 | 0.55 | 0.775 | 0.564 | 1.34 | 1.02 | 0.739 | 0.569 | 1.55 | 1.18 | 0.928 | 0.588
0.974 | 0.736 | 1.03 | YPLELYERVRI [PRKCG_Y312_M317I] | 0.437 | 0.584 | 4.38 | 1.9 | 1.74 | 0.895 | 0.58 | 0.493 | 0.459 | 1.01 | 1.08 | 0.56 | 1.23
1.74 | 4.01 | 2.39 | YQCKHYACIRQ [TIMP3_Y182_S179C] | 0.46 | 0.347 | 0.399 | 0.371 | 0.275 | 0.55 | 0.514 | 0.362 | 0.336 | 0.662 | 0.601 | 0.455 | 0.363

The next lines start with the sequence.

Sequence | SH2 binding enrichment (Grb2 SH2) | SH2 binding enrichment (SHP2-C SH2) | SH2 binding enrichment (c-Src SH2) | phosphorylation enrichment (MERTK) | phosphorylation enrichment (Fyn) | phosphorylation enrichment (Fer (mouse)) | phosphorylation enrichment (EPHB1) | phosphorylation enrichment (Hck) | phosphorylation enrichment (Jak2) | phosphorylation enrichment (c-Abl (mouse)) | phosphorylation enrichment (c-Src) | phosphorylation enrichment (FGFR1) | phosphorylation enrichment (Fes) | phosphorylation enrichment (AncSZ) | phosphorylation enrichment (FGFR3) | phosphorylation enrichment (EPHB2)
VLNKGYRMVVN [HINT1_Y94_G89V] | 0.707 | 0.538 | 0.424 | 0.339 | 0.383 | 0.311 | 0.362 | 0.368 | 0.433 | 0.361 | 0.326 | 0.392 | 0.539 | 0.557 | 0.396 | 0.343
VLTSKYCGGGG [HBA1_Y141_R142C] | 0.884 | 0.804 | 0.545 | 0.391 | 0.429 | 0.394 | 0.474 | 0.467 | 0.634 | 0.747 | 0.354 | 0.384 | 0.772 | 0.603 | 0.577 | 0.419
VNKGGYFSVNL [C3orf33_Y164_S160N] | 0.648 | 0.725 | 1.4 | 0.412 | 0.456 | 0.395 | 0.553 | 0.411 | 1.23 | 0.688 | 0.398 | 0.599 | 1.05 | 0.832 | 0.603 | 0.411
VQEDIYDEFVE [ALDH2_Y332] | 0.752 | 0.408 | 0.437 | 0.542 | 1.89 | 0.658 | 0.728 | 1.15 | 1.34 | 0.859 | 1.87 | 0.459 | 1.3 | 1.2 | 0.731 | 0.715
VRQQDYKKVEE [HADHA_Y283_V282D] | 1.02 | 0.532 | 0.414 | 0.419 | 0.417 | 0.376 | 0.517 | 0.482 | 0.564 | 0.423 | 0.43 | 0.514 | 0.604 | 0.783 | 0.442 | 0.561
VRSVDYVLFRS [FAM189B_Y361] | 1.13 | 1.12 | 0.648 | 0.44 | 0.455 | 0.544 | 0.825 | 0.528 | 0.583 | 0.516 | 0.403 | 2.09 | 0.831 | 1.06 | 1.4 | 0.534
VRTSKYRGGGG [HBA1_Y141_L137R] | 0.602 | 0.571 | 0.353 | 0.648 | 0.426 | 0.365 | 0.366 | 0.424 | 0.609 | 0.637 | 0.542 | 0.423 | 0.676 | 0.64 | 0.618 | 0.407
VTPVMYTFDEF [COL10A1_Y623_G618V_YF] | 0.93 | 0.698 | 0.772 | 0.962 | 0.737 | 0.458 | 0.665 | 0.531 | 1.02 | 0.662 | 0.715 | 0.591 | 1.19 | 1.03 | 0.654 | 0.668
VTSLKYSTPPY [BRIP1_Y916_S919P] | 0.955 | 1.31 | 0.434 | 0.387 | 0.366 | 0.352 | 0.355 | 0.396 | 0.565 | 0.483 | 0.389 | 0.358 | 0.681 | 0.625 | 0.515 | 0.344
VTSLKYSTSPF [BRIP1_Y916_YF] | 1.09 | 0.664 | 0.455 | 0.412 | 0.433 | 0.408 | 0.469 | 0.464 | 0.711 | 0.482 | 0.403 | 0.435 | 0.695 | 0.605 | 0.689 | 0.507
WAFNLYDINKD [KCNIP3_Y174] | 0.718 | 0.6 | 0.563 | 1.3 | 1.92 | 1.82 | 1.27 | 2.65 | 1.17 | 0.91 | 1.78 | 0.541 | 1.45 | 1.43 | 0.763 | 1.64
WKEREYEVVRD [CPS1_Y634_I632R] | 0.954 | 0.67 | 6.04 | 0.478 | 0.599 | 0.573 | 1.36 | 0.586 | 0.949 | 0.594 | 0.506 | 0.554 | 1.12 | 1.26 | 0.684 | 2.29
WQLEIYRASRP [ERCC4_Y594_R589W] | 0.717 | 0.546 | 0.599 | 0.521 | 0.492 | 0.471 | 0.567 | 0.491 | 0.911 | 0.997 | 0.45 | 0.375 | 1.22 | 1.27 | 0.702 | 0.628
WQQQSYLFSGI [CTNNB1_Y30_D32Y_YF] | 1.02 | 0.882 | 0.641 | 0.414 | 0.454 | 0.398 | 0.461 | 0.44 | 0.972 | 0.765 | 0.467 | 0.473 | 0.928 | 0.977 | 0.57 | 0.57
YAFQLYDLDRD [CHP2_Y123] | 0.879 | 2.55 | 1.58 | 2.83 | 2.66 | 1.12 | 1.69 | 1.73 | 0.969 | 0.768 | 3.19 | 1.89 | 1.17 | 1.24 | 1.55 | 0.765
YASALYRQRRS [FGF11_Y162] | 0.649 | 0.34 | 0.419 | 0.535 | 0.687 | 0.431 | 0.433 | 0.548 | 0.513 | 0.703 | 0.659 | 0.507 | 0.632 | 0.613 | 0.58 | 0.62
YCRHNYGVVES [HLA-DRB1_Y112] | 1.2 | 0.927 | 1.64 | 0.592 | 0.385 | 0.41 | 1.52 | 0.458 | 0.681 | 0.675 | 0.484 | 0.568 | 0.798 | 0.557 | 0.527 | 2.87
YDEYRYRSVIK [CFTR_Y517] | 0.788 | 0.606 | 1.25 | 0.706 | 1.76 | 0.529 | 0.584 | 1.14 | 1.16 | 1.05 | 2.15 | 0.435 | 0.973 | 1.04 | 0.67 | 0.589
YGLQAYTKVKT [ALDH2_Y502_E504K] | 0.811 | 2.67 | 1.85 | 0.414 | 0.357 | 0.427 | 0.445 | 0.377 | 1.23 | 0.614 | 0.435 | 0.45 | 1.08 | 1.26 | 0.679 | 0.462
YPPDGYSRHCE [CTNND1_Y213_Y217C] | 0.9 | 0.666 | 0.693 | 0.505 | 0.585 | 0.514 | 0.461 | 0.555 | 0.816 | 0.738 | 0.462 | 0.496 | 0.941 | 0.883 | 0.568 | 0.487
